Experimental findings from publication PMC7857403 are described below.

The assay has as its target SARS-CoV-2 spike ectodomain trimer (SARS-CoV-2) (UniProt P0DTC2). In words: cryo-EM structure.

Regarding LCB1 (designed binder), the stoichiometry N (minibinders per spike trimer) is 3.

LCB3 (designed binder): the stoichiometry N (minibinders per spike trimer) is 3.
